Laboratory results from paper doi:10.1101/2021.10.21.465318.
Where a chain is given by its changes, count along the chain named. Like-named read-outs stand apart in the source and are kept apart here.

How the values were obtained:
Experiment in all cases: FRET
[1] = molecular target: T1, HsMSH2;HsMSH6 (sortase/Cy3) (Homo sapiens;Homo sapiens, UniProt P43246;P52701 1-934;1-1360, |)
[2] = molecular target: T2, HsMSH2;HsMSH3 (sortase/Cy3) (Homo sapiens;Homo sapiens, UniProt P43246;P20585 1-934;1-1137, |)
[3] = molecular target: T2, HsMSH2;HsMSH3 (sortase/Cy3); remark: listed apart in the source
[4] = molecular target: T1, HsMSH2;HsMSH6 (sortase/Cy3); remark: listed apart in the source
[5] = molecular target: T1, HsMSH2;HsMSH6 (sortase/Cy3); remark: listed apart in the source
[6] = molecular target: T2, HsMSH2;HsMSH3 (sortase/Cy3); remark: listed apart in the source

B1: 41-mer G/T Cy5 (dsDNA)
DNA 1: GCTTAGGATCATCGAGGATCGAGCTCGGTGCAATTCAGCGG
DNA 2: CCGCTGAATTGCACCGAGCTTGATCCTGCATGATCCTAAGC
modifications: amino-C6 dT at position 12 of top strand
B1: binds [1]; no binding [2].

B2: 41-mer G/C Cy5 (dsDNA)
DNA 1: B1 DNA 1
DNA 2: B1 DNA 2 with T21C, G28C, C29G
modifications: amino-C6 dT at position 12 of top strand
B2: no binding [3]; no binding [4].

B3: 41-mer G/+(CA)4 Cy5 (dsDNA)
DNA 1: B1 DNA 1
DNA 2: CCGCTGAATTGCACCGAGCTCACACACACGATCCTCGATGATCCTAAGC
modifications: amino-C6 dT at position 12 of top strand
B3: binds [5]; binds [6].
